Patent US20210388087A1
Positions count from the first letter of the chain named. Names may count otherwise.

B1: H183/L072 VL T31G (antibody, name in Kabat numbering, V domains shown)
VH: QVQLVESGGGLVQPGRSLRLSCAASGFTFSNAWMHWVRQAPGKGLEWVAQIKDKGNAYAAYYAPSVKGRFTISRDDSKNSIYLQMNSLKTEDTAVYYCHYVHYASASTVLPAFGVDAWGQGTTVTVSS
VL: DIVMTQSPLSLPVTPGEPASISCQASQELVHMNRNGYLHWYQQKPGQAPRLLIYKVSNRFPGVPDRFSGSGSGTDFTLKISRVEAEDVGVYYCAQGTSVPFTFGQGTKLEIK
B2: H183/L072 VL H34G (antibody, name in Kabat numbering, V domains shown)
VH: B1 VH
VL: B1 VL with G36T, H39G
B3: H183/L072 VL L27bN (antibody, name in Kabat numbering, V domains shown)
VH: B1 VH
VL: B1 VL with L29N, G36T
B4: H183/L072 VL T31N (antibody, name in Kabat numbering, V domains shown)
VH: B1 VH
VL: B1 VL with G36N
B5: H183/L072 VL H34N (antibody, name in Kabat numbering, V domains shown)
VH: B1 VH
VL: B1 VL with G36T, H39N
B6: H183/L072 VL H34Q (antibody, name in Kabat numbering, V domains shown)
VH: B1 VH
VL: B1 VL with G36T, H39Q
B7: H183/L072 VL Y32S (antibody, name in Kabat numbering, V domains shown)
VH: B1 VH
VL: B1 VL with G36T, Y37S
B8: H183/L072 VL L33S (antibody, name in Kabat numbering, V domains shown)
VH: B1 VH
VL: B1 VL with G36T, L38S
B9: H183/L072 VL H34S (antibody, name in Kabat numbering, V domains shown)
VH: B1 VH
VL: B1 VL with G36T, H39S
B10: H183/L072 VL K50W (antibody, name in Kabat numbering, V domains shown)
VH: B1 VH
VL: B1 VL with G36T, K55W
B11: H183/L072 VL V51W (antibody, name in Kabat numbering, V domains shown)
VH: B1 VH
VL: B1 VL with G36T, V56W
B12: H183/L072 VL Q90W (antibody, name in Kabat numbering, V domains shown)
VH: B1 VH
VL: B1 VL with G36T, Q95W
B13: H183/L072 VL G91W (antibody, name in Kabat numbering, V domains shown)
VH: B1 VH
VL: B1 VL with G36T, G96W
B14: H183/L072 VL T92W (antibody, name in Kabat numbering, V domains shown)
VH: B1 VH
VL: B1 VL with G36T, T97W
B15: H183/L072 VL V94W (antibody, name in Kabat numbering, V domains shown)
VH: B1 VH
VL: B1 VL with G36T, V99W
B16: H183/L072 VL P95W (antibody, name in Kabat numbering, V domains shown)
VH: B1 VH
VL: B1 VL with G36T, P100W
B17: H183/L072 VL F96W (antibody, name in Kabat numbering, V domains shown)
VH: B1 VH
VL: B1 VL with G36T, F101W
B18: H183/L072 VL T97W (antibody, name in Kabat numbering, V domains shown)
VH: B1 VH
VL: B1 VL with G36T, T102W

The binders below were run against Human CD137 ECD (human) (assay: Biacore SPR, vs parent H183/L072).
Chain of Human CD137 ECD (human) (chain, as listed by the source limits assumed): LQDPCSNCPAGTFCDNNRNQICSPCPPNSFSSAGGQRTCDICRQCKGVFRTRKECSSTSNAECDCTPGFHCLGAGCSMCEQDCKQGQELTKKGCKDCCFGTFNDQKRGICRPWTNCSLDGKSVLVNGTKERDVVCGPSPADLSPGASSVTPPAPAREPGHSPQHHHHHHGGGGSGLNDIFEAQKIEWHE

Fold change of affinity, 0 fold:
B1, B2, B3, B4, B5, B6, B7, B8, B9

Each binder was assayed against Human CD3eg linker (human) (assay: SPR; fold vs parent H183/L072).
Chain of Human CD3eg linker (human) (chain, as listed by the source limits assumed): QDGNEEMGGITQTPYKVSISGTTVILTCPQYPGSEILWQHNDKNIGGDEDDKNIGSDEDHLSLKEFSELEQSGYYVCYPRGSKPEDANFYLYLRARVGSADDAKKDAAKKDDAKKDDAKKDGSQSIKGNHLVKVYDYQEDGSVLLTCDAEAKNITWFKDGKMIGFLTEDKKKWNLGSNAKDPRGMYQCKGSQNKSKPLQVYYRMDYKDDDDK

Fold change of affinity, 0 fold:
B10, B11, B12, B13, B14, B15, B16, B17, B18
